Test results taken from the nanobody polyreactivity screen of Harvey et al. (2022).

Assay: yeast display, Sf9 membrane polyspecificity reagent, FACS + sequencing; frameworks hold sequencing errors
Method in brief: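 Sorting gates, low and high (top ~1%), were placed on anti-HA fluorescence to track expression and on streptavidin fluorescence to track reagent binding. A clone's polyreactivity label is taken from the gate it came out of. The reagent was 10% biotinylated, detergent-solubilized Sf9 membrane, applied for 1 hour at 4 °C to galactose-induced yeast display cells.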
In the case of “QVQLVESGGGLVQAGGSLRLSCAASGRTLLYNAMGWYRQAPGKERELVAAISYRGGSTYYADSVKGRFTISRDNAKNTVYLQMNSLKPEDTAVYYCAKVTYPYIRWYYPGYDYWGQGTQVTVSS”, the “polyreactivity (PSR sort gate)” value is reported as “high polyreactivity”.
For “QVQLVESGGGLVQAGGSLRLSCAASGSIFGENAMGWYRQAPGKERELVAAITWSGASTYYADSVKGRFTISRDNAKNTVYLQMNSLKPEETAVYYCNADRYVRYSTFDYWGQGTQVTVSS”, the “polyreactivity (PSR sort gate)” value was “high polyreactivity”.
With “QVQLVESGGGLVQAGGSLRLICAASGSTFNNNAMGWFRQAPGKERELVAAISYTGGSTYYADSVKGRFTISRDNAKNNVYLQMNSLKPEDTAVYYCAADYPHLGGYRYDYWGQGTQVTVSS” the “polyreactivity (PSR sort gate)” value was “high polyreactivity”.
In the case of “QVQLVESGGGLVQAGGSLRLSCAASGITFYRNAMGSYRQAPGKERELVADIDVGDGTYYADSVKGRFTISRDNCKNTVYLQMNSLKPEDTAVYYCNKTFLFLEYDSWGQGTQVTVSS”, the “polyreactivity (PSR sort gate)” value is reported as “low polyreactivity”.
In the case of “QVQLVESGGGLVQAGGSLRLSCAASGRISYNNAMGWYRQAPGKERELVAAITKNGGRTYYADSVKGRFTISRDNAKNTVYLQMNSLKPEDTAVYYCAVRSYYYGYDYWGQGTQVTVSS”, the “polyreactivity (PSR sort gate)” value is reported as “high polyreactivity”.
With “QVQLVESGGGIVQAGGSLRLSCAASGYIFKRYAMGWYRQAPWKERELVAAITGRGGSTYFADSVKGRFKISRDNAKNTVYLQMNSLKPEDTAVYYCAADGYVKGDYWGQGTQVTVSS” the “polyreactivity (PSR sort gate)” value was “high polyreactivity”.
For “QVQLVESGGGLVQAGGSLRLSCDASGSIFFSYAMGWYRQAPGTEREFVAAINSDDASTYADSVKGRFTISRDNAKNTVYLQMNSLKPEDTAVYYCADSFLWSWYDYWGQGTQVTVSS”, the “polyreactivity (PSR sort gate)” value was “low polyreactivity”.
In the case of “QVQRVESGGGLVQAGGSLRLSCAPSAIIIYYYAMGCYRQAPGNEMELVAGISYSGGSTYADSVKGRLTISRDNAKNTVYLQMNSLKPEDTAVYFCAADYDYGGHWYDYWGQGTQVTVSS”, the “polyreactivity (PSR sort gate)” value is reported as “low polyreactivity”.
With “QVQLVESGGGLVQAGGSLRLRCAASGSTFTYYAMGWYRQAPGKERELVAVSNKSGGRTNYADSVKGRFTISRDNAKNTVYLQMNSLKPEDTAVYYCNKVTRREGSYGYPSRYDYWGQGTQVTVSS” the “polyreactivity (PSR sort gate)” value was “high polyreactivity”.
With “QDQLVESGGGLVQAGVSLRLICPASGLTFYTYAMGSYRQAPGKERELVAAIRRRGGRTYYADSVKGRFTISRDNAKNTVFLQMNSLKPEDTAVYYCAADYSTLFKYDYWGQGTQVTVSS” the “polyreactivity (PSR sort gate)” value was “low polyreactivity”.
For “QVQLVESGGVLVQAGGSLRLSCAASGFTFGPYAMGWYRPAPGKERELVATIRSGDSTNYADSVKGRFTISRDNAKNTVYLQMNSLKPEDTAVYYCARDARASARRKRYDYGGQGTQVTVSS”, the “polyreactivity (PSR sort gate)” value was “low polyreactivity”.
With “QVQLVESGGGLVQAGGSLRLSCAASGFTFYSYVMGWYRQAPGKERELVAAISWSGGSTYYADSVKGRFTISRDNAKNTVYLQMNSLKPEDTAVYYCAARRYASRTGYLYDYWGQGTQVTVSS” the “polyreactivity (PSR sort gate)” value was “high polyreactivity”.
For “QVQLVESGGGLVQAGGSLRLSCAASGFTFVSYAMGWYRQAPGKERELVAVISKSGSRTSYAESVKGRFTISRDNAKNTVYLQMNSLKPEDTAVYYCAVFYTRIGPRYDYWGQGTQVTVSS”, the “polyreactivity (PSR sort gate)” value was “high polyreactivity”.
With “QVQLVESGGGLDQARGSLRLSCAASGLTFASNAMGWYRQAPGKERELVAAISWSDGSTYYADSVKGRFTISRDNAKNTVYLQMNSLKPEDTAVYYCAAEPPGFRTSRVGYWGQGTQVTVSS” the “polyreactivity (PSR sort gate)” value was “low polyreactivity”.
With “QVQLQESGGGLVQAGGSLRLSCAASGNISVTGFMGWYRQAPGKERELVASIGIGATTYYADSVKGRFSISRDNAKNTVYLQMNSLKPEDTAVYYCAARYLYYAYSYWGQGTQVTVSS” the “polyreactivity (PSR sort gate)” value was “low polyreactivity”.
With “QVQLVESGGGLVQAGGSLRLSCAASGRIFSYNAMGWDRQAPGKERELVSAISYGGGRTYYADSVKGRFTISRYNAKNTVYLQMNSLKPEDTAVYYCNRYGRQYDFFYWGQGTQVTGSS” the “polyreactivity (PSR sort gate)” value was “high polyreactivity”.
